Blank lines part the entries; values can stand above or below the binder they belong to.
Tests used:
[1] = target: human IGF-1R on H322M non-small cell lung cancer cells (human, UniProt P08069 31-1367); assay: cell-based or functional assay
[2] = target: T1, hIGF-1R-Fc mutant SD103 (D461A, V462T) (human, UniProt P08069 31-933); assay: SPR, immobilized antibody
T1 construct: not shown: human IgG1 Fc, C-terminal tag
Experimental: Surface plasmon resonance (SPR) experiments were performed on a Biacore 3000 instrument set to 25° C. […] The antibody sensorchip surfaces were prepared by injecting each antibody (diluted 100 μg/mL in 10 mM Acetate, pH 4.0) over EDC/NHS-activated sensorchip surfaces according to the standard protocol of the manufacturer. […] Both hIGF-1R-Fc and mIGF-1R-Fc proteins oligomerize due to the incorporation of two separate homodimeric regions (IGF-1R and IgG1-Fc). […] After, completion of the receptor-Fc loading step, flow rates were elevated to 5 μl/min. […] Dissociation was measured for 7 minutes after the antibody injections were complete. Finally, the flow rate was elevated to 30 μL/min and the chip surfaces were regenerated by 2×10 μL injections of 0.1 M glycine, pH 2.

human IGF-1R(1-903)-Fc [3] = target: T2, human IGF-1R(1-903)-Fc (human, UniProt P08069 31-933); assay: ELISA, blocking of 320 nM IGF-1 His on biotinylated hIGF-1R-Fc
T2 construct: also called hIGF-1R-Fc; SDWT; not shown: human IgG1 Fc, C-terminal tag
T2 sequence (P08069 31-933): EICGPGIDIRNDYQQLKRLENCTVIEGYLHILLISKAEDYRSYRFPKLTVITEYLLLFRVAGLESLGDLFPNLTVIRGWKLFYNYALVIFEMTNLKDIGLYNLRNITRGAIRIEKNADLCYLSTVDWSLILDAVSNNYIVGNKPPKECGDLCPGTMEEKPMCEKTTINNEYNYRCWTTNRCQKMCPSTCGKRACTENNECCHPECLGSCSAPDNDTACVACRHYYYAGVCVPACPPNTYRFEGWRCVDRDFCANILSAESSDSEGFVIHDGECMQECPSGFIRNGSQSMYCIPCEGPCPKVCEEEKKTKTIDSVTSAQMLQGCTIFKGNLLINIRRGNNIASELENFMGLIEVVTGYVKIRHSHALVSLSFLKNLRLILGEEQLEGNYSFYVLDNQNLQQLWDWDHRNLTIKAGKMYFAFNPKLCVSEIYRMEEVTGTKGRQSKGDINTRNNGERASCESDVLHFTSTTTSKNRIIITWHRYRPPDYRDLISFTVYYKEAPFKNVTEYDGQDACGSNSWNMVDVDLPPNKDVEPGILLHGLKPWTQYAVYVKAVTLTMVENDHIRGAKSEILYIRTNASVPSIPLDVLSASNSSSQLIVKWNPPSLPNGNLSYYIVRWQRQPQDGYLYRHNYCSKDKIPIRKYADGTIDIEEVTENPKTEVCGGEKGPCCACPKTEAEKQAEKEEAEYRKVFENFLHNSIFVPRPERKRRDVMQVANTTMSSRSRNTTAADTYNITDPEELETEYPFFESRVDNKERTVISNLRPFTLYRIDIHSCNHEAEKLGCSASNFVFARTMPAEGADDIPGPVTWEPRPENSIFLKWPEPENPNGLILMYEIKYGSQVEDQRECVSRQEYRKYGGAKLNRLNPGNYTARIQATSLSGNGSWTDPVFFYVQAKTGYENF
Experimental: hIGF-1R-Fc was biotinylated using EZ-Link Sulfo-NHS-LC-Biotin according to the protocol provided by the manufacturer (Pierce Cat. No. 21335). Biotinylated human IGF-1R Fc (NB12453-9) at 5 μg/ml was added to the wells of SigmaScreen streptavidin-coated 96-well plates (Sigma, Cat. No. M5432-5EA) at 100 μL/well and incubated overnight at 2-8° C. The plates were then washed four times with 200 μL/well PBST. […] The dilutions were added to the plates in duplicate at 100 μL/well and the plates were incubated at RT for 1 hour. The plates were then washed four times with 200 μL/well PBST. An HRP-conjugated anti-Histag antibody (Penta-His HRP Conjugate, QIAGEN, Cat. No. 1014992) was diluted 1:1000 in PBST and added to plates at 100 μL/well, and the plates were incubated at RT for one hour. The plates were then washed four times with 200 μL/well PBST. SureBlue Reserve TMB Microwell Peroxidase Substrate (KPL, Cat. No. 53-00-01) was added to plates at 100 μL/well followed by 1% phosphoric acid at 100 μL/well once the desired reaction was observed. The absorbance of each well was determined at 450 nm, and the results were normalized and plotted against the log of antibody concentration.

sIGF-1R(1-903) = target: T3, sIGF-1R(1-903) (human, UniProt P08069 31-933); assay: equilibrium solution-phase SPR, free sIGF-1R(1-903) read on C06 surface
T3 construct: also called soluble IGF-1R ectodomain
T3 sequence (P08069 31-933): as above

human IGF-1R(1-903)-Fc [4] = target: T2, human IGF-1R(1-903)-Fc; assay: IGF-1 blocking ELISA at 80 nM IGF-1 His on biotinylated hIGF-1R-Fc
Experimental: The dilutions were added to the plates in duplicate at 100 μL/well and the plates were incubated at RT for 1 hour. The plates were then washed four times with 200 μL/well PBST. An HRP-conjugated anti-Histag antibody (Penta-His HRP Conjugate, QIAGEN, Cat. No. 1014992) was diluted 1:1000 in PBST and added to plates at 100 μL/well, and the plates were incubated at RT for one hour. The plates were then washed four times with 200 μL/well PBST. SureBlue Reserve TMB Microwell Peroxidase Substrate (KPL, Cat. No. 53-00-01) was added to plates at 100 μL/well followed by 1% phosphoric acid at 100 μL/well once the desired reaction was observed. The absorbance of each well was determined at 450 nm, and the results were normalized and plotted against the log of antibody concentration.
Ligand Blocking Properties.

human IGF-1R(1-903)-Fc [5] = target: T2, human IGF-1R(1-903)-Fc; assay: SPR: receptor-Fc captured on M13-C06 chip, then M13-C06 Fab; relative to wild type
Experimental: (§1) After, completion of the receptor-Fc loading step, flow rates were elevated to 5 μl/min. […] At the end of each sensorgram, the flow rate was elevated to 30 μl/min and the chip surface was regenerated by 2×10 μL injections of 0.1 M glycine, pH 2.

[6] = target: T4, hIGF-1R-Fc mutant SD003 (T188F) (human, UniProt P08069 31-933); assay: as above
T4 construct: not shown: human IgG1 Fc, C-terminal tag
T4 sequence (P08069 31-933 T218F): as the sequence (P08069 31-933) above, with T188F counted along it
Experimental: as §1

[7] = target: T5, hIGF-1R-Fc mutant SD004 (S210H, A211Q) (human, UniProt P08069 31-933); assay: as above
T5 construct: not shown: human IgG1 Fc, C-terminal tag
T5 sequence (P08069 31-933 S240H/A241Q): as the sequence (P08069 31-933) above, with S210H, A211Q counted along it
Experimental: as §1

[8] = target: T6, hIGF-1R-Fc mutant SD005 (A217T) (human, UniProt P08069 31-933); assay: as above
T6 construct: not shown: human IgG1 Fc, C-terminal tag
T6 sequence (P08069 31-933 A247T): as the sequence (P08069 31-933) above, with A217T counted along it
Experimental: as §1

[9] = target: T7, hIGF-1R-Fc mutant SD007 (N237G) (human, UniProt P08069 31-933); assay: as above
T7 construct: not shown: human IgG1 Fc, C-terminal tag
T7 sequence (P08069 31-933 N267G): as the sequence (P08069 31-933) above, with N237G counted along it
Experimental: as §1

[10] = target: T8, hIGF-1R-Fc mutant SD009 (E264K) (human, UniProt P08069 31-933); assay: as above
T8 construct: not shown: human IgG1 Fc, C-terminal tag
T8 sequence (P08069 31-933 E294K): as the sequence (P08069 31-933) above, with E264K counted along it
Experimental: as §1

[11] = target: T9, hIGF-1R-Fc mutant SD010 (G271D) (human, UniProt P08069 31-933); assay: as above
T9 construct: not shown: human IgG1 Fc, C-terminal tag
T9 sequence (P08069 31-933 G301D): as the sequence (P08069 31-933) above, with G271D counted along it
Experimental: as §1

[12] = target: T10, hIGF-1R-Fc mutant SD011 (G285S, S286T) (human, UniProt P08069 31-933); assay: as above
T10 construct: not shown: human IgG1 Fc, C-terminal tag
T10 sequence (P08069 31-933 G315S/S316T): as the sequence (P08069 31-933) above, with G285S, S286T counted along it
Experimental: as §1

[13] = target: T11, hIGF-1R-Fc mutant SD013 (D405K) (human, UniProt P08069 31-933); assay: as above
T11 construct: not shown: human IgG1 Fc, C-terminal tag
T11 sequence (P08069 31-933 D435K): as the sequence (P08069 31-933) above, with D405K counted along it
Experimental: as §1

T1 sequence (P08069 31-933 D491A/V492T): as the sequence (P08069 31-933) above, with D461A, V462T counted along it
Chain of human IGF-1R on H322M non-small cell lung cancer cells (P08069 31-1367, stated change not applied): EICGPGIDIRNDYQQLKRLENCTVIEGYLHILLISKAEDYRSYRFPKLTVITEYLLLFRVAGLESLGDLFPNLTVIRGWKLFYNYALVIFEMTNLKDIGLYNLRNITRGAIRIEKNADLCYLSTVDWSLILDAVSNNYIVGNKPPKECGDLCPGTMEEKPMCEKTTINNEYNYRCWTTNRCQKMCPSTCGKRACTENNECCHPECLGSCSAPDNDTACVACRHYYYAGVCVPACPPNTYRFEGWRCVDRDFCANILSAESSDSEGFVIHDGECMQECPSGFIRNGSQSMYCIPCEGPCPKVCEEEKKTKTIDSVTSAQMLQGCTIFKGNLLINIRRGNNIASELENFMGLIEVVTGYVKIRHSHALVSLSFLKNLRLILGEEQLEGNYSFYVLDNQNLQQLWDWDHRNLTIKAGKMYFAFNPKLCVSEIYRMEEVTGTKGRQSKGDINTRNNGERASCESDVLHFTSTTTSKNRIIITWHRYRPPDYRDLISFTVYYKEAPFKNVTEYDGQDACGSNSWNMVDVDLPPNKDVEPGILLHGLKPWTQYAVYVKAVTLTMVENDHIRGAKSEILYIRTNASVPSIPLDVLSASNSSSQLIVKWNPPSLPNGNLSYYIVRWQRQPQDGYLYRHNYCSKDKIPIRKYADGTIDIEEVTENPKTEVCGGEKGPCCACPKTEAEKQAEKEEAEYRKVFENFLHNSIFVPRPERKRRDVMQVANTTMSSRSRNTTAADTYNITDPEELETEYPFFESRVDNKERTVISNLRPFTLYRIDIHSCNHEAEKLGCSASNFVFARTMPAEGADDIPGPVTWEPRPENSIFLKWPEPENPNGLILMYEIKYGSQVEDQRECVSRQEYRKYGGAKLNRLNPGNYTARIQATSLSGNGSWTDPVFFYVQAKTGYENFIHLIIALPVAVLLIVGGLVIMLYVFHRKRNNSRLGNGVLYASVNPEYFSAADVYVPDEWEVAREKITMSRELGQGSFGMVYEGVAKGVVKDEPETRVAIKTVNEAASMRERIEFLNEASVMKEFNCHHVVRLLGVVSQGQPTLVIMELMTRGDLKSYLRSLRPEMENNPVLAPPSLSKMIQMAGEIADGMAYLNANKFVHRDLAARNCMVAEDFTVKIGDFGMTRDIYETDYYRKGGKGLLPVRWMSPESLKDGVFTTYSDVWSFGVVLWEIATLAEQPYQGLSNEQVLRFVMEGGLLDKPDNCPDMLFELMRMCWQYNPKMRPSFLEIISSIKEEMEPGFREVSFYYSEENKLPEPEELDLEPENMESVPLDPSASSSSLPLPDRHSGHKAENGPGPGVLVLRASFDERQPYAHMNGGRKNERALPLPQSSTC

- reduction of surface IGF-1R after 24 hours (FACS, H322M cells) [1]: > 70%
- binding result [2]: no binding
- IC50 (human IGF-1R(1-903)-Fc [3]): 1.3 nM
- Kd (sIGF-1R(1-903)): 0.1 nM
- n (#C06 specific binding sites) (sIGF-1R(1-903)): 1
- IC50 (read off the curve) (human IGF-1R(1-903)-Fc [4]): ~1 nM
B1: M13-C06 antibody (antibody, V domains shown)
VH: EVQLLESGGGLVQPGGSLRLSCAASGFTFSIYRMQWVRQAPGKGLEWVSGISPSGGTTWYADSVKGRFTISRDNSKNTLYLQMNSLRAEDTAVYYCARWSGGSGYAFDIWGQGTMVTVSS
VL: DIQMTQSPLSLSASVGDRVTITCQASRDIRNYLNWYQQKPGKAPKLLIYDASSLQTGVPSRFGGSGSGTDFSFTIGSLQPEDIATYYCQQFDSLPHTFGQGTKLEIK
notes: Fully human full-length antibody (ATCC PTA-7444); also called M13.C06.G4.P.agly; M13-C06.G4P.agly

- Kd (sIGF-1R(1-903)): 0.6 nM
- n (#C06 specific binding sites) (sIGF-1R(1-903)): 2
- Biacore Relative RUmax (human IGF-1R(1-903)-Fc [5]): 1
- Biacore Relative RUmax [6]: 1
- Biacore Relative RUmax [7]: 0.8
- Biacore Relative RUmax [8]: 0.9
- Biacore Relative RUmax [9]: 1.3
- Biacore Relative RUmax [10]: 0.6
- Biacore Relative RUmax [11]: 0.8
- Biacore Relative RUmax [12]: 1.8
- Biacore Relative RUmax [13]: 0.7
B2: M13-C06 Fab (Fab, V domains shown)
VH: B1 VH
VL: B1 VL
notes: Fab made by enzymatic digestion of the IgG

Source: patent US20090130105A1 (Biogen, published 2009)
